B1: wild-type rTpiA (recombinant Streptococcus pneumoniae D39 triosephosphate isomerase) [Streptococcus pneumoniae D39] / human plasma plasminogen [human] (parent complex)
chain 1: SRKPFIAGNWKMNKNPEEAKAFVEAVASKLPSSDLVEAGIAAPALDLTTVLAVAKGSNLKVAAQNCYFENAGAFTGETSPQVLKEIGTDYVVIGHSERRDYFHETDEDINKKAKAIFANGMLPIICCGESLETYEAGKAAEFVGAQVSAALAGLTAEQVAASVIAYEPIWAIGTGKSASQDDAQKMCKVVRDVVAADFGQEVADKVRVQYGGSVKPENVASYMACPDVDGALVGGASLEAESFLALLDFVK
chain 2: EPLDDYVNTQGASLFSVTKKQLGAGSIEECAAKCEEDEEFTCRAFQYHSKEQQCVIMAENRKSSIIIRMRDVVLFEKKVYLSECKTGNGKNYRGTMSKTKNGITCQKWSSTSPHRPRFSPATHPSEGLEENYCRNPDNDPQGPWCYTTDPEKRYDYCDILECEEECMHCSGENYDGKISKTMSGLECQAWDSQSPHAHGYIPSKFPNKNLKKNYCRNPDRELRPWCFTTDPNKRWELCDIPRCTTPPPSSGPTYQCLKGTGENYRGNVAVTVSGHTCQHWSAQTPHTHNRTPENFPCKNLDENYCRNPDGKRAPWCHTTNSQVRWEYCKIPSCDSSPVSTEQLAPTAPPELTPVVQDCYHGDGQSYRGTSSTTTTGKKCQSWSSMTPHRHQKTPENYPNAGLTMNYCRNPDADKGPWCFTTDPSVRWEYCNLKKCSGTEASVVAPPPVVLLPDVETPSEEDCMFGNGKGYRGKRATTVTGTPCQDWAAQEPHRHSIFTPETNPRAGLEKNYCRNPDGDVGGPWCYTTNPRKLYDYCDVPQCAAPSFDCGKPQVEPKKCPGRVVGGCVAHPHSWPWQVSLRTRFGMHFCGGTLISPEWVLTAAHCLEKSPRPSSYKVILGAHQEVNLEPHVQEIEVSRLFLEPTRKDIALLKLSSPAVITDKVIPACLPSPNYVVADRTECFITGWGETQGTFGAGLLKEAQLPVIENKVCNRYEFLNGRVQSTELCAGHLAGGTDSCQGDSGGPLVCFEKDKYILQGVTSWGLGCARPNKPGVYVRVSRFVTWIEGVMRNN

Variants of: B1
Assay: ELISA; rTpiA protein-coated microtiter plate; measured 60 min after substrate addition; n = 9; parent: 1.4; read off a plot

Variant	response
chain 1 K11A	~1.3 A405
chain 1 K138A	~1.3 A405
chain 1 K111A	~1.3 A405
chain 1 K3A	~1.3 A405
chain 1 K111A, chain 1 K112A, chain 1 K114A	~0.86 A405
chain 1 K188A	~1.3 A405
chain 1 K176A	~1.3 A405
chain 1 K84A	~1.2 A405
chain 1 K14A	~1.3 A405
chain 1 K205A	~1.3 A405
chain 1 K29A	~1.2 A405
chain 1 K215A	~1.4 A405
chain 1 K114A	~1.3 A405
chain 1 K20A	~1.3 A405
chain 1 K251A	~0.14 A405
chain 1 K60A	~1.3 A405
chain 1 K112A	~1.2 A405
chain 1 K185A	~1.3 A405
chain 1 K55A	~1.3 A405

From paper PMC10221034 (2023)
